Measurements published in publication doi:10.1101/2025.01.16.633226.
Where two headings read alike, the source gives them in different places.

How the values were obtained:
[1] = molecular target: T1, LARP6 (70-295) (UniProt Q9BRS8 70-295); assay: TR-FRET competition
T1 sequence: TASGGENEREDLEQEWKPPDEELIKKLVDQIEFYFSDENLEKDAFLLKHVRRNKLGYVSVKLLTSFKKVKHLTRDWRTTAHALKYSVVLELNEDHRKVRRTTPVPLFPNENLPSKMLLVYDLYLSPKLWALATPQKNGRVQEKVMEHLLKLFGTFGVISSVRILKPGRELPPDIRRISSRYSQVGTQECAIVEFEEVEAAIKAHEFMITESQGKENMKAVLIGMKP

[2] = molecular target: T2, LARP6 (ITC) (UniProt Q9BRS8 70-295); assay: ITC
T2 sequence: T1 sequence

[3] = molecular target: T2, LARP6 (ITC); assay: ITC; remark: listed apart in the source
[4] = molecular target: T1, LARP6 (70-295); assay: TR-FRET competition; remark: listed apart in the source
[5] = molecular target: T2, LARP6 (ITC); assay: ITC; remark: listed apart in the source
[6] = molecular target: T1, LARP6 (70-295); assay: TR-FRET competition; remark: listed apart in the source

B1: COL1A1-TIS (structured_RNA)
RNA: CCAGCCACAAAGAGUCUACAUGUCUAGGGUCUAGACAUGUUCAGCUUUGUGGACCUCCGG
**Q.** B1 was tested. Which IC50 [1] did it give?
**A.** 2.71 nM

**Q.** What about the Kd [2] of the same binder?
**A.** 400 nM

**Q.** What does the source list for CCACAAAGAGUCUACAUGUCUAGGGUCUAGACAUGUUCAGCUUUGUGG (structured_RNA) [A1 (COL1A1 5'SL)]?
**A.** IC50 [1]: 6.84 nM; Kd [3]: > 400 nM

B2: COL5A1-CDS (ssRNA)
RNA: CUGCUGCUGCUGCUGUGGGCGCCGCCUCCGAGCCGCGCAGCUCAGCCAGCAGAUCUCCUG
**Q.** Which results are given for B2?
**A.** binding result [4]: binds; binding result [5]: binds

B3: CCNI-5'UTR (ssRNA)
RNA: GGGUCAUCAUGGAACUAAUUCGCUGACCGACCCAGCGGCCGCAGCCGUGCGUCCCGCUCG
**Q.** Does B3 bind [6]?
**A.** no binding

**Q.** Does B3 bind [2]?
**A.** no binding

B4: LRP1-CDS (ssRNA)
RNA: CUGCAUGUGCACAGCCGGCUAUAGCCUCCGGAGUGGCCAGCAGGCCUGCGAGGGCGUAGG
**Q.** Does B4 bind [4]?
**A.** binds

**Q.** Does B4 bind [5]?
**A.** binds
